{"source": "patent US12059562B2", "about": "“Systems for electrical stimulation” (priority 2018, dated 2024)", "tested_on": "Micrococcus lysodeikticus cells", "experiment": "Lysozyme enzyme activity assay", "assay_type": "biochemical", "details": "micropost tips 80% lysozyme and 20% PEO 200k versus uncompressed powder", "method": "To measure the activity of lysozyme, the assay provided by Sigma Aldrich was used which measures the amount of lysed Micrococcus lysodeikticus cells. Briefly, a 200 unit/mL Lysozyme solution in 50 mM Potassium Phosphate Buffer was added to a 0.015% [w/v] Micrococcus lysodeikticus cell suspension in the same buffer. The decrease was recorded in A450 over 5 minutes. Nine micropost tips were fabricated from 80% lysozyme and 20% PEO 200k and dissolved sets of three micropost tips together. Triplicate assays were performed on each dissolved solution for a total of nine tests and the results were compared to the results of a solution made with lysozyme that was not compressed into a micropost tip."}
{"substance": "lysozyme", "values": [{"measurement": "enzymatic activity after the manufacturing process", "value": "maintain their activity"}]}
